Where no end group is shown, it is not given here. [ ]: non-standard residue; d: D form. pY = N[C@@H](Cc1ccc(OP(=O)(O)O)cc1)C(=O)O; pT = C[C@@H](OP(=O)(O)O)[C@H](N)C(=O)O; pS = N[C@@H](COP(=O)(O)O)C(=O)O
Target: KEAP1 Kelch (kelch-like ECH-associated protein 1, Kelch domain) (human) (UniProt Q14145)
Experiment: fluorescence polarisation; competition: unlabelled peptide in serial dilution against the protein domain (master mix at four times the KD) with its FITC-labelled probe peptide; 50 mM KPO4 or NaPO4 pH 7.5; Ki calculated from IC50

Chain of KEAP1 Kelch (kelch-like ECH-associated protein 1, Kelch domain) (human) (Q14145 whole entry, the tested form may be a part): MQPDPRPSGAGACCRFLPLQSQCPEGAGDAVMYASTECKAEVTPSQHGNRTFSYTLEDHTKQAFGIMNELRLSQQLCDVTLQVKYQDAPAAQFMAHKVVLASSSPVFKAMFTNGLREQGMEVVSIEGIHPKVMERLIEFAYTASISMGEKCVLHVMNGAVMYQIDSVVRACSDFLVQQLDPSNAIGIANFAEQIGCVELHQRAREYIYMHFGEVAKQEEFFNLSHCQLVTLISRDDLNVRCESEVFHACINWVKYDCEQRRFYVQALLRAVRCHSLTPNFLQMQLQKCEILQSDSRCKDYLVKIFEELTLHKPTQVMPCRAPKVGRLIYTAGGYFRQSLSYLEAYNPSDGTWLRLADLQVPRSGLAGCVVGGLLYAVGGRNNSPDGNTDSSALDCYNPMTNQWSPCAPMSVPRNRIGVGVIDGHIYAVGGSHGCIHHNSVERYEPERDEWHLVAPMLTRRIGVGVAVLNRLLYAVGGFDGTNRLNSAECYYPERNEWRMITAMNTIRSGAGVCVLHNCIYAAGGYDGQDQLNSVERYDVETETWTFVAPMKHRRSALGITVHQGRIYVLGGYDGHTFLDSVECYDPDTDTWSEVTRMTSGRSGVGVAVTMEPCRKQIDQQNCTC

Binder | IC50 | Ki
IDPSTGERFPVTDAVN-NH2 [PLEC 4459-4474 peptide] | 6.1 µM | 1.5 µM
GFDAVTGEFTGMPEQW-NH2 [PAK1 88-103 peptide] | 44 µM | 11 µM
YDPVTGEWKSLAKLPE-NH2 [KLHL24 335-350 peptide] | 80 µM | 19 µM
Ac-LIYVDKENGEPGTRVV-NH2 [PTTG1 4-19 peptide] | 3 µM | 
Ac-GIIDPSTGERFPVTDY-NH2 [PLEC 4457-4471 peptide with an extra C-terminal Y, wild type] | 1.5 µM | 0.49 µM
Ac-YDEETGEFLPIQPAQH-NH2 [NFE2L2 77-91 peptide with an extra N-terminal Y, wild type] | 0.31 µM | 0.071 µM
Ac-YDEEKGEFLPIQPAQH-NH2 [NFE2L2 77-91 peptide with an extra N-terminal Y, T80K] | 2540 µM | 611 µM
Ac-YDEKTGEFLPIQPAQH-NH2 [NFE2L2 77-91 peptide with an extra N-terminal Y, E79K] | 1650 µM | 397 µM

Target: CLTC (clathrin heavy chain 1, Clathrin-propeller domain) (human) (UniProt Q00610)
Sequence (Q00610 whole entry, the tested form may be a part): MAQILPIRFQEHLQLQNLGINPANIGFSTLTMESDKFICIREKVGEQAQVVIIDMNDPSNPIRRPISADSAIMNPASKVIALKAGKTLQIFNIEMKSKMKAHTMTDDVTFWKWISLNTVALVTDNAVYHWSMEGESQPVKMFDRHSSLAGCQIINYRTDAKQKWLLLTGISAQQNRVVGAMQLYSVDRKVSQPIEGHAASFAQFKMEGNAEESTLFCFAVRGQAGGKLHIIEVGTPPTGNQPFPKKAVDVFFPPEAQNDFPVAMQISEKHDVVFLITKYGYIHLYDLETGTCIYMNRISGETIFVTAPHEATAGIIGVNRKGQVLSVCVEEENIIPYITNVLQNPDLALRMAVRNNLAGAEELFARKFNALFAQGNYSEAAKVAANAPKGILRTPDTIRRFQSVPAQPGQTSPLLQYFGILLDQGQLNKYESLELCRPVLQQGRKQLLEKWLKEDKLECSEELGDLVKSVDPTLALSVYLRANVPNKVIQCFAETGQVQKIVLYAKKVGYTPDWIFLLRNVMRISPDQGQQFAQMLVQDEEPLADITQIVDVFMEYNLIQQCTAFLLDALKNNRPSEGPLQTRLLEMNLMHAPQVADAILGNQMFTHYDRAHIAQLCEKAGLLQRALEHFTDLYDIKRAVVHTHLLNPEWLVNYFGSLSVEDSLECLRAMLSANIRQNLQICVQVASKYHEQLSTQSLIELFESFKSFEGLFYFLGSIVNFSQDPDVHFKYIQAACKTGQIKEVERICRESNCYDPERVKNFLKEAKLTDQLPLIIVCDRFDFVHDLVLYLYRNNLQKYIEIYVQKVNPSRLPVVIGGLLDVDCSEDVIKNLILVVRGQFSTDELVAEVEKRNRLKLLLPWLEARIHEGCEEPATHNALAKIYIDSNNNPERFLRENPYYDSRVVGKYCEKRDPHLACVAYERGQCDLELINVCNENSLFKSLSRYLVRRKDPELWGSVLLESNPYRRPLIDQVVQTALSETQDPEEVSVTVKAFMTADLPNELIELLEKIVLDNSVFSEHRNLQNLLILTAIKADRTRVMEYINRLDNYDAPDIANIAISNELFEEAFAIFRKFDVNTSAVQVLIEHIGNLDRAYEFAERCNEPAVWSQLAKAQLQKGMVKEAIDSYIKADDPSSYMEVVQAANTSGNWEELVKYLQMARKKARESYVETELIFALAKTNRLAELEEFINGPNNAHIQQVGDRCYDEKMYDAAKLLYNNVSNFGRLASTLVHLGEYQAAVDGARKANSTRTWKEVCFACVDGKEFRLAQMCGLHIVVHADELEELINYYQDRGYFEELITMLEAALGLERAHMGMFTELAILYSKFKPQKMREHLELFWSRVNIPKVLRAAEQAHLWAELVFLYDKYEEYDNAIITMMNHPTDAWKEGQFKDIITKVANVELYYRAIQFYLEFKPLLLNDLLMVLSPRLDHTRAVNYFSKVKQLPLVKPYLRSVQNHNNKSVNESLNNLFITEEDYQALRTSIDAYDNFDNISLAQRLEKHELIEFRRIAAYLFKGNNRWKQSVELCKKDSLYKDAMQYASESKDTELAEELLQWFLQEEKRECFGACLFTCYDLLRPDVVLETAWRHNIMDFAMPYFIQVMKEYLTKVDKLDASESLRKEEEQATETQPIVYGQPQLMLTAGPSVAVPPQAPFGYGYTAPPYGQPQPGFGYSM
Experiment: as above

Binder | IC50 | Ki
Ac-YVSGNLIDLYGNQGLP [MITF 256-271 peptide] | 150 µM | 63 µM
Ac-YVSGNLIDLCGNQGLP [MITF 256-271 peptide, Y265C] | 220 µM | 100 µM
Ac-LIDLPLIDFCDTPEAHY [GTSE1 645-660 peptide] | 97 µM | 39 µM
Ac-LIDLPLIDFCD[pT]PEAHY [GTSE1 645-660 peptide, phosphothreonine] | 87 µM | 34 µM

Target: KPNA4 ARM (importin subunit alpha-3, armadillo repeat domain) (human) (UniProt O00629)
Sequence (O00629 whole entry, the tested form may be a part): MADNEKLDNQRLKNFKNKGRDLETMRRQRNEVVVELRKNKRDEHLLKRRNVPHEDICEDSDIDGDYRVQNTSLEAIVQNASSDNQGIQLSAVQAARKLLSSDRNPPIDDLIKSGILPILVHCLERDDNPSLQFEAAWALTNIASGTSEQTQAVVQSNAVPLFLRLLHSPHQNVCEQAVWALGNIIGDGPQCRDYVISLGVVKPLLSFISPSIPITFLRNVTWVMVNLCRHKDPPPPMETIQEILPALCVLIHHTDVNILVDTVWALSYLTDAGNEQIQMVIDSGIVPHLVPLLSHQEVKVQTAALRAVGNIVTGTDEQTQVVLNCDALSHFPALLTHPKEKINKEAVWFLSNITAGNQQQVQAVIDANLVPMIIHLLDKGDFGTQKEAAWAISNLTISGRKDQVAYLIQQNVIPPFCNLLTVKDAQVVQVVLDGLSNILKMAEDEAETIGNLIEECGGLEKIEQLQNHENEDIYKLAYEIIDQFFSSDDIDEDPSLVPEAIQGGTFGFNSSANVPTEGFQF
Experiment: fluorescence polarisation; competition: unlabelled peptide in serial dilution against KPNA4 ARM (master mix at four times the KD) with the probe FITC-Myc(320-328), probe of the major pocket; 50 mM KPO4 pH 7.5; Ki calculated from IC50

Binder | IC50 | Ki
VEPETKRLKLAASEDH-NH2 [ZRANB3 571-586 peptide] | 0.24 µM | 0.14 µM
ERENPSKRSRIERDID-NH2 [CTDSPL2 64-79 peptide] | 1.9 µM | 1.2 µM
IPEKKQRLEEATTICL-NH2 [AFF2 864-879 peptide] | 2.3 µM | 1.5 µM
DLKRRLDSITSSQSSA-NH2 [KDR 958-973 peptide] | 22 µM | 14 µM
DHQFPAKRPRLSEPQG-NH2 [HJURP 675-690 peptide] | 0.076 µM | 0.038 µM
Ac-YKCKRQRQDQTLELVGL-NH2 [NKX2-5 192-207 peptide, wild type] | 2.2 µM | 6.8 µM
Ac-YKCRRQRQDQTLELVGL-NH2 [NKX2-5 192-207 peptide, K194R] | 98 µM | 63 µM
EDSIEPPHKRLCLSSE-NH2 [DMTF1 44-59 peptide] | 0.13 µM | 0.075 µM

Target: KPNA4 ARM (importin subunit alpha-3, armadillo repeat domain) (human) (UniProt O00629)
Experiment: fluorescence polarisation; competition: unlabelled peptide in serial dilution against KPNA4 ARM (master mix at four times the KD) with the probe FITC-NCOR2(1307-1322), probe of the minor pocket; 50 mM KPO4 pH 7.5; Ki calculated from IC50

Binder | IC50 | Ki
IPEKKQRLEEATTICL-NH2 [AFF2 864-879 peptide] | 3800 µM | 1420 µM
DLKRRLDSITSSQSSA-NH2 [KDR 958-973 peptide] | 24 µM | 8.9 µM
ELKRKLEQEQKLVEVL-NH2 [MKL2 572-587 peptide] | 36 µM | 13 µM
PFKRPHSTISDSSTSS-NH2 [PLEKHG4B 1183-1198 peptide] | 3.6 µM | 1.2 µM
STMKRKHDEIQRSLPV-NH2 [ZBED9 651-666 peptide] | 2.4 µM | 0.77 µM
DHQFPAKRPRLSEPQG-NH2 [HJURP 675-690 peptide] | 170 µM | 63 µM
SLAPVKRTYEQMEFPL-NH2 [ADNP 711-726 peptide] | 1.3 µM | 0.38 µM
PKRTYDMMEGRVGRAI-NH2 [NCOR2 1307-1322 peptide, unlabelled] | 0.12 µM | 
AGVKRSAAEMYGSVTE-NH2 [HNRNPC 95-110 peptide] | 0.5 µM | 0.093 µM
GVKRTYSEVYPGQQYL-NH2 [ZMIZ2 264-279 peptide] | 0.43 µM | 0.054 µM
GKKRTFDETVSTYVPL-NH2 [TPX2 312-327 peptide] | 0.41 µM | 0.047 µM
Ac-EISLKRSYESVEGNIK-NH2 [NCOR1 1240-1255 peptide, unphosphorylated] | 11 µM | 3.6 µM
Ac-EI[pS]LKRSYESVEGNIK-NH2 (SMILES CC[C@H](C)[C@H](NC(=O)[C@H](CC(N)=O)NC(=O)CNC(=O)[C@H](CCC(=O)O)NC(=O)[C@@H](NC(=O)[C@H](CO)NC(=O)[C@H](CCC(=O)O)NC(=O)[C@H](Cc1ccc(O)cc1)NC(=O)[C@H](CO)NC(=O)[C@H](CCCNC(=N)N)NC(=O)[C@H](CCCCN)NC(=O)[C@H](CC(C)C)NC(=O)[C@H](COP(=O)(O)O)NC(=O)[C@@H](NC(=O)[C@H](CCC(=O)O)NC(C)=O)[C@@H](C)CC)C(C)C)C(=O)N[C@@H](CCCCN)C(N)=O) [NCOR1 1240-1255 peptide, pS1242] | 31 µM | 10 µM
Ac-EISLKR[pS]YESVEGNIK-NH2 (SMILES CC[C@H](C)[C@H](NC(=O)[C@H](CC(N)=O)NC(=O)CNC(=O)[C@H](CCC(=O)O)NC(=O)[C@@H](NC(=O)[C@H](CO)NC(=O)[C@H](CCC(=O)O)NC(=O)[C@H](Cc1ccc(O)cc1)NC(=O)[C@H](COP(=O)(O)O)NC(=O)[C@H](CCCNC(=N)N)NC(=O)[C@H](CCCCN)NC(=O)[C@H](CC(C)C)NC(=O)[C@H](CO)NC(=O)[C@@H](NC(=O)[C@H](CCC(=O)O)NC(C)=O)[C@@H](C)CC)C(C)C)C(=O)N[C@@H](CCCCN)C(N)=O) [NCOR1 1240-1255 peptide, pS1246] | 240 µM | 81 µM
Ac-EISLKRS[pY]ESVEGNIK-NH2 (SMILES CC[C@H](C)[C@H](NC(=O)[C@H](CC(N)=O)NC(=O)CNC(=O)[C@H](CCC(=O)O)NC(=O)[C@@H](NC(=O)[C@H](CO)NC(=O)[C@H](CCC(=O)O)NC(=O)[C@H](Cc1ccc(OP(=O)(O)O)cc1)NC(=O)[C@H](CO)NC(=O)[C@H](CCCNC(=N)N)NC(=O)[C@H](CCCCN)NC(=O)[C@H](CC(C)C)NC(=O)[C@H](CO)NC(=O)[C@@H](NC(=O)[C@H](CCC(=O)O)NC(C)=O)[C@@H](C)CC)C(C)C)C(=O)N[C@@H](CCCCN)C(N)=O) [NCOR1 1240-1255 peptide, pY1247] | 21 µM | 6.8 µM

— PMC8769072, “Proteome‐scale mapping of binding sites in the unstructured regions of the human proteome” (Molecular Systems Biology, 2022)
